The assay concerns the target T1, biotinylated CD59 (Homo sapiens, UniProt P13987).
T1 construct: Recombinant soluble human CD59 with an additional C-terminal cysteine residue
T1 sequence (P13987 26-102 limits assumed): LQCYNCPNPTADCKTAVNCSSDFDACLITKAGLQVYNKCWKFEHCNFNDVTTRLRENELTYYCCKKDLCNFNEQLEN
The assay can be described thus: mRNA-display cyclic peptide screen against CD59-biotin, NGS abundance after 6th selection round. Conditions: for Counts (raw counts for peptide sequence), Seq I: NGS sample Seq I; for Counts (raw counts for peptide sequence), Seq I / Counts (raw counts for peptide sequence), Seq II / Counts Seq I / Counts Seq II: sheet R6 (6th selection round); for Counts (raw counts for peptide sequence), Seq II: NGS sample Seq II; for Percentage of the pool, averaged across the two sequencing samples: average of Seq I and Seq II; for Percentage of the pool, averaged across the two sequencing samples / Percentage of the pool, Seq I / Percentage of the pool, Seq II / Percentage Seq I / Percentage Seq II / Percentage Average: sheet R6; for Percentage of the pool, Seq I: counts normalised by total counts of NGS sample Seq I; for Percentage of the pool, Seq II: counts normalised by total counts of NGS sample Seq II; for Percentage Seq I: counts normalised by total counts of sample Seq I; for Percentage Seq I / Percentage Seq II: percentage of the pool; for Percentage Seq II: counts normalised by total counts of sample Seq II; for Percentage Average: percentage of the pool averaged across the two sequencing samples; for Counts Seq I / Counts Seq II: raw NGS counts of peptide sequence; for Counts Seq I: sequencing sample Seq I; for Counts Seq II: sequencing sample Seq II. An outline of the steps:
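Peptide–mRNA fusions were made by in vitro translation with a customised PURE express kit. The kit lacked release factor 1 and methionine and was supplemented with […] initiator tRNA carrying N-chloroacetyl-d-tyrosine. Thioether macrocycles were formed, then enriched and amplified over iterative rounds on CD59-biotin immobilised on streptavidin beads. NGS read counts per sequence were recorded after the 6th selection round.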

Regarding CPRYVSRGFA, the “Counts (raw counts for peptide sequence), Seq I” value is on record as 72; the “Counts (raw counts for peptide sequence), Seq II” value is recorded as 5; the “Percentage of the pool, averaged across the two sequencing samples” value is reported as 0.014%; the “Percentage of the pool, Seq I” value is listed as 0.016%. Also, the “Percentage of the pool, Seq II” value was determined as 0.012%.
Consider HVYGNRSFTRG, for which the “Counts (raw counts for peptide sequence), Seq I” value is listed as 97; the “Counts (raw counts for peptide sequence), Seq II” value is on record as 5; the “Percentage of the pool, averaged across the two sequencing samples” value amounted to 0.017%; the “Percentage of the pool, Seq I” value amounted to 0.022%. Also, the “Percentage of the pool, Seq II” value came to 0.012%.
For the sequence CFAGRLTIDAG, the “Counts (raw counts for peptide sequence), Seq I” value is 59; the “Counts (raw counts for peptide sequence), Seq II” value came to 4; the “Percentage of the pool, averaged across the two sequencing samples” value stood at 0.011%; the “Percentage of the pool, Seq I” value amounted to 0.013%. For the same sequence, the “Percentage of the pool, Seq II” value was determined as 0.009%.
Take CFRYRVTPTSY: the “Percentage Seq I” value is on record as 0.023%, the “Percentage Seq II” value amounted to 0.014%, the “Percentage Average” value is listed as 0.018% and the “Counts Seq I” value stood at 100. Moreover, the “Counts Seq II” value worked out at 6.
On to CFRYRLGLTST, for which the “Percentage Seq I” value is 0.062%, the “Percentage Seq II” value is 0.058%, the “Percentage Average” value was 0.060% and the “Counts Seq I” value was found to be 271. The “Counts Seq II” value turned out to be 25.
For CFAGRLAIDAV, the “Counts (raw counts for peptide sequence), Seq I” value turned out to be 54; the “Counts (raw counts for peptide sequence), Seq II” value amounted to 8; the “Percentage of the pool, averaged across the two sequencing samples” value worked out at 0.015%; the “Percentage of the pool, Seq I” value is reported as 0.012%. Further, the “Percentage of the pool, Seq II” value is reported as 0.019%.
Consider CFSHRPGPSI, for which the “Percentage Seq I” value is on record as 0.147%, the “Percentage Seq II” value was determined as 0.132%, the “Percentage Average” value amounted to 0.140% and the “Counts Seq I” value was 642. For the same sequence, the “Counts Seq II” value came out at 57.
The matching figures for ISYGDRSYTYY: 0.106%, 0.121%, 0.113%, 463 and 52.
For SAYGSRDFAWA, the “Percentage Seq I” value is recorded as 0.024%, the “Percentage Seq II” value is reported as 0.023%, the “Percentage Average” value worked out at 0.024% and the “Counts Seq I” value came out at 106. Also, the “Counts Seq II” value was determined as 10.
As for CLRLHREPGSL, the “Percentage Seq I” value is given as 0.103%, the “Percentage Seq II” value is 0.135%, the “Percentage Average” value was 0.119% and the “Counts Seq I” value came to 449. The “Counts Seq II” value amounted to 58.
In the case of CFRSRAVSNGT, the “Counts (raw counts for peptide sequence), Seq I” value is recorded as 57; the “Counts (raw counts for peptide sequence), Seq II” value turned out to be 8; the “Percentage of the pool, averaged across the two sequencing samples” value came to 0.016%; the “Percentage of the pool, Seq I” value worked out at 0.013%. The “Percentage of the pool, Seq II” value was 0.019%.
Regarding FIRGNSTSVLF, the “Percentage Seq I” value worked out at 1.617%, the “Percentage Seq II” value is on record as 1.838%, the “Percentage Average” value is recorded as 1.728% and the “Counts Seq I” value is 7076. The “Counts Seq II” value is on record as 792.
As to SRNGIQFTCS, the “Percentage Seq I” value is recorded as 0.036%, the “Percentage Seq II” value was 0.037%, the “Percentage Average” value worked out at 0.037% and the “Counts Seq I” value is 158. The “Counts Seq II” value was determined as 16.
With CFSRRLTVGAI, the “Counts (raw counts for peptide sequence), Seq I” value was 40; the “Counts (raw counts for peptide sequence), Seq II” value was 6; the “Percentage of the pool, averaged across the two sequencing samples” value was 0.012%; the “Percentage of the pool, Seq I” value worked out at 0.009%. The “Percentage of the pool, Seq II” value is listed as 0.014%.
CFSRRLTAGAT: the “Percentage Seq I” value came out at 0.045%, the “Percentage Seq II” value is 0.035%, the “Percentage Average” value amounted to 0.040% and the “Counts Seq I” value worked out at 195. Besides, the “Counts Seq II” value is reported as 15.
Turning to FATGNRDHTRG, the “Percentage Seq I” value is 0.027%, the “Percentage Seq II” value turned out to be 0.014%, the “Percentage Average” value was 0.020% and the “Counts Seq I” value is listed as 117. Further, the “Counts Seq II” value is on record as 6.
On to HVIGNRSFTRG, for which the “Percentage Seq I” value is recorded as 0.020%, the “Percentage Seq II” value came out at 0.016%, the “Percentage Average” value turned out to be 0.018% and the “Counts Seq I” value is listed as 87. The “Counts Seq II” value stood at 7.
The matching figures for CFAARARNNQTV: 0.091%, 0.093%, 0.092%, 396 and 40.
Turning to SAWGNRKIQYY, the “Counts (raw counts for peptide sequence), Seq I” value turned out to be 55; the “Counts (raw counts for peptide sequence), Seq II” value is given as 5; the “Percentage of the pool, averaged across the two sequencing samples” value stood at 0.012%; the “Percentage of the pool, Seq I” value is 0.013%. The “Percentage of the pool, Seq II” value is reported as 0.012%.
As for FKYGNSNFVRG, the “Percentage Seq I” value was determined as 0.035%, the “Percentage Seq II” value came to 0.039%, the “Percentage Average” value turned out to be 0.037% and the “Counts Seq I” value is listed as 154. Moreover, the “Counts Seq II” value came out at 17.
With FVRGDLYSVIG, the “Counts (raw counts for peptide sequence), Seq I” value is given as 54; the “Counts (raw counts for peptide sequence), Seq II” value is 6; the “Percentage of the pool, averaged across the two sequencing samples” value was 0.013%; the “Percentage of the pool, Seq I” value is given as 0.012%. Moreover, the “Percentage of the pool, Seq II” value is recorded as 0.014%.
VVRGGTAFRYE: the “Percentage Seq I” value came to 0.022%, the “Percentage Seq II” value was 0.026%, the “Percentage Average” value is 0.024% and the “Counts Seq I” value is 96. The “Counts Seq II” value was determined as 11.
On to CYGNSHAS, for which the “Counts (raw counts for peptide sequence), Seq I” value is 36; the “Counts (raw counts for peptide sequence), Seq II” value is 8; the “Percentage of the pool, averaged across the two sequencing samples” value is given as 0.013%; the “Percentage of the pool, Seq I” value is listed as 0.008%. Also, the “Percentage of the pool, Seq II” value was 0.019%.
Regarding SWTWGNRSSVLG, the “Counts (raw counts for peptide sequence), Seq I” value amounted to 35; the “Counts (raw counts for peptide sequence), Seq II” value is recorded as 7; the “Percentage of the pool, averaged across the two sequencing samples” value was determined as 0.012%; the “Percentage of the pool, Seq I” value is recorded as 0.008%. Moreover, the “Percentage of the pool, Seq II” value came out at 0.016%.
With CFRNRVLEITST, the “Percentage Seq I” value is given as 0.042%, the “Percentage Seq II” value worked out at 0.032%, the “Percentage Average” value turned out to be 0.037% and the “Counts Seq I” value was 183. The “Counts Seq II” value worked out at 14.
With HVFGNRSYTRG, the “Counts (raw counts for peptide sequence), Seq I” value came out at 46; the “Counts (raw counts for peptide sequence), Seq II” value stood at 7; the “Percentage of the pool, averaged across the two sequencing samples” value was 0.013%; the “Percentage of the pool, Seq I” value is given as 0.011%. Besides, the “Percentage of the pool, Seq II” value came to 0.016%.
On to CFARRLSSSHSL, for which the “Percentage Seq I” value worked out at 0.161%, the “Percentage Seq II” value was 0.155%, the “Percentage Average” value worked out at 0.158% and the “Counts Seq I” value is on record as 705. The “Counts Seq II” value is 67.
